Measured values taken from patent publication US20250042994A1 (HAINAN SIMCERE ZAIMING PHARMACEUTICAL, published 2025).

Experiments:
[1] = molecular target: T1, human CD19 exon1-3-his protein (human, UniProt P15391 20-186, limits assumed); assay: ELISA, coated at 2 ug/mL
T1 construct: made in HEK293E cells; also called membrane-distal end; not shown: His tag
T1 sequence (looked up): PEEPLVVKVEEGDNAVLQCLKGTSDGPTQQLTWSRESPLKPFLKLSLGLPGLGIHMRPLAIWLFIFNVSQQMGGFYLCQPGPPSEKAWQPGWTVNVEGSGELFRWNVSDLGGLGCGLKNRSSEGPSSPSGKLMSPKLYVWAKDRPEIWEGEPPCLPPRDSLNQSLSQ

murine CD19 protein = molecular target: T2, murine CD19 protein (murine, UniProt P25918 17-287, limits assumed); assay: ELISA
T2 construct: bought protein; also called commercial murine CD19
T2 sequence (looked up): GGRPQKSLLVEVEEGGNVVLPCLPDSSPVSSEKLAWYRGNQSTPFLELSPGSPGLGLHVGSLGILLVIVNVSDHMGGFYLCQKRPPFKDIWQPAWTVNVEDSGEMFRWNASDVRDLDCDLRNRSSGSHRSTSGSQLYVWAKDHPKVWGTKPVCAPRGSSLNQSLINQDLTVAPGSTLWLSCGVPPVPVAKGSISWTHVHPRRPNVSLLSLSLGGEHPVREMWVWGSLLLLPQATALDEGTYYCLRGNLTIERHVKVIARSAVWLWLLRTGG
Protocol: Human CD19-his protein (purchased from ACROBiosystems, catalog number: CD9-H52H2) was diluted with PBS to a final concentration of 4 μg/mL, and then added to a 96-well ELISA plate at 100 μl/well. The plate was sealed with a plastic film and incubated overnight at 4° C., the plate was washed 2 times with PBS the next day, and then a blocking solution [PBS+2% (w/w) BSA] was added for blocking at room temperature for 2 h. The blocking solution was poured off, and 100 nM gradiently diluted CD19 chimeric antibody or control antibody was added at 50 μl/well. After incubation at 37° C. for 2 h, the plate was washed 3 times with PBS. […] TMB substrate was added at 50 μl/well, and incubated at room temperature for 10 min, and then a stop solution (1.0 N HCl) was added at 50 μl/well. The OD450 nm values were read by an ELISA microplate reader (Multimode Plate Reader, EnSight, purchased from Perkin Elmer).
In order to detect the species cross-binding activity of the chimeric antibodies, an ELISA plate was coated with commercial murine CD19 (ACROBiosystems, catalog number: 50510-M08H) and monkey CD19 (ACROBiosystems, catalog number: 90051-C08H), respectively, and the ELISA detection was performed according to the method in example 5.1. […]

binding result [1] | binding result (murine CD19 protein) | Binder
no binding | no binding | F3.121.4-L1H2 (antibody, mouse IgG1, kappa, V domains shown, murine IgG1 constant regions; also called humanized antibody of F3.121.4) VH: EVQLVQSGAEVKKPGASVKVSCKASGYTFTNYWMHWVRQAPGQGLEWMGEIDPSDNYANYNQEFQGRVTITVDKSASTAYMELSSLRSEDTAVYYCARHDGYFGALDYWGQGTTVTVSS VL: EIVLTQSPATLSLSPGERATLSCSASSSISSNYLHWYQQKPGQAPRFLIYRTSNLASGIPARFSGSGSGTDFTLTISSLEPEDFAVYYCQQASSIPRMFTFGQGTKLEIKR
no binding | no binding | F3.121.4-L2H2 (antibody, mouse IgG1, kappa, V domains shown, murine IgG1 constant regions; also called humanized antibody of F3.121.4) VH: EVQLVQSGAEVKKPGASVKVSCKASGYTFTNYWMHWVRQAPGQGLEWMGEIDPSDNYANYNQEFQGRVTITVDKSASTAYMELSSLRSEDTAVYYCARHDGYFGALDYWGQGTTVTVSS VL: EIVLTQSPDFQSVTPKEKVTITCSASSSISSNYLHWYQQKPDQSPKLLIKRTSNLASGVPSRFSGSGSGTDFTLTINSLEAEDAATYYCQQASSIPRMFTFGQGTKLEIKR
no binding | no binding | F3.121.4-L1H3 (antibody, mouse IgG1, kappa, murine IgG1 constant regions; also called humanized antibody of F3.121.4) heavy: EVQLVQSGAEVKKPGASVKVSCKASGYTFTNYWMHWVRQRPGQGLEWMGEIDPSDNYANYNQEFQGRVTITVDKSASTAYMELSSLRSEDTAVYYCARHDGYFGALDYWGQGTTVTVSSAKTTPPSVYPLAPGSAAQTNSMVTLGCLVKGYFPEPVTVTWNSGSLSSGVHTFPAVLQSDLYTLSSSVTVPSSTWPSETVTCNVAHPASSTKVDKKIVPRDCGCKPCICTVPEVSSVFIFPPKPKDVLTITLTPKVTCVVVDISKDDPEVQFSWFVDDVEVHTAQTQPREEQFNSTFRSVSELPIMHQDWLNGKEFKCRVNSAAFPAPIEKTISKTKGRPKAPQVYTIPPPKEQMAKDKVSLTCMITDFFPEDITVEWQWNGQPAENYKNTQPIMDTDGSYFVYSKLNVQKSNWEAGNTFTCSVLHEGLHNHHTEKSLSHSPGK light: EIVLTQSPATLSLSPGERATLSCSASSSISSNYLHWYQQKPGQAPRFLIYRTSNLASGIPARFSGSGSGTDFTLTISSLEPEDFAVYYCQQASSIPRMFTFGQGTKLEIKRADAAPTVSIFPPSSEQLTSGGASVVCFLNNFYPKDINVKWKIDGSERQNGVLNSWTDQDSKDSTYSMSSTLTLTKDEYERHNSYTCEATHKTSTSPIVKSFNRNEC
